# From paper doi:10.1101/2021.06.20.449167 (bioRxiv, 2021)
# T1: His6-Fy-1 (Tbck), subunit of the reconstituted FERRY complex (human, UniProt Q8TEA7 1-893)
# T1 sequence (looked up): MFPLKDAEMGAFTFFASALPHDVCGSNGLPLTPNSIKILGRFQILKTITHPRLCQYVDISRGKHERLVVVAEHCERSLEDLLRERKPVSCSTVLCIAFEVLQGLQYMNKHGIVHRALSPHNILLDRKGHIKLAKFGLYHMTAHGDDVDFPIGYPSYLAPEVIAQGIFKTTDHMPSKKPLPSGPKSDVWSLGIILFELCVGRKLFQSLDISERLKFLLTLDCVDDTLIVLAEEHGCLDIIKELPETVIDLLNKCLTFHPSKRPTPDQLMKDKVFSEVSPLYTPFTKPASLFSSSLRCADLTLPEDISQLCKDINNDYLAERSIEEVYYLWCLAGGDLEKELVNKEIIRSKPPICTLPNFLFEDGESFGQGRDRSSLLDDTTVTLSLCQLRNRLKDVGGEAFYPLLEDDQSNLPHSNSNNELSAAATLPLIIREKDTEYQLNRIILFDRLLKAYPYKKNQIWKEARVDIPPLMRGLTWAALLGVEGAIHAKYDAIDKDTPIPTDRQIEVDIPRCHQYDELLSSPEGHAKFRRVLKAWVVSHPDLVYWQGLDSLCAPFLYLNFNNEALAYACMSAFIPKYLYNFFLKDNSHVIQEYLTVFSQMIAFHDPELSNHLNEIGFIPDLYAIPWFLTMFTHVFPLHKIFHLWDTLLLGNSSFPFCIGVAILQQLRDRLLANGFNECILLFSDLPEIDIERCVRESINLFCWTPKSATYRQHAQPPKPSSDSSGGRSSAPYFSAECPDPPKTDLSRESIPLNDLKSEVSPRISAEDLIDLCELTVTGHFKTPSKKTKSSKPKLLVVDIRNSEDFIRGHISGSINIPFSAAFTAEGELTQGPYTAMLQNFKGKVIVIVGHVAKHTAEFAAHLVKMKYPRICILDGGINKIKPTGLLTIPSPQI
# B1: His6-Fy-5 (Gatd1) (natural protein, human, UniProt Q8NB37 1-220, looked up)
# chain: MASERLPNRPACLLVASGAAEGVSAQSFLHCFTMASTAFNLQVATPGGKAMEFVDVTESNARWVQDFRLKAYASPAKLESIDGARYHALLIPSCPGALTDLASSGSLARILQHFHSESKPICAVGHGVAALCCATNEDRSWVFDSYSLTGPSVCELVRAPGFARLPLVVEDFVKDSGACFSASEPDAVHVVLDRHLVTGQNASSTVPAVQNLLFLCGSRK
# B2: His6-Fy-4 (Cryzl1) (natural protein, human, UniProt O95825 1-349, looked up)
# chain: MKGLYFQQSSTDEEITFVFQEKEDLPVTEDNFVKLQVKACALSQINTKLLAEMKMKKDLFPVGREIAGIVLDVGSKVSFFQPDDEVVGILPLDSEDPGLCEVVRVHEHYLVHKPEKVTWTEAAGSIRDGVRAYTALHYLSHLSPGKSVLIMDGASAFGTIAIQLAHHRGAKVISTACSLEDKQCLERFRPPIARVIDVSNGKVHVAESCLEETGGLGVDIVLDAGVRLYSKDDEPAVKLQLLPHKHDIITLLGVGGHWVTTEENLQLDPPDSHCLFLKGATLAFLNDEVWNLSNVQQGKYLCILKDVMEKLSTGVFRPQLDEPIPLYEAKVSMEAVQKNQGRKKQVVQF
# B3: Fy-3 (C12orf4), untagged subunit of the recombinant FERRY and GST-FERRY complexes (natural protein, human, UniProt Q9NQ89 1-552, looked up)
# chain: MKKNRERFCNREREFVYKFKVGSQCLELRVPLKFPVQENASHLHGRLMLLHSLPCFIEKDLKEALTQFIEEESLSDYDRDAEASLAAVKSGEVDLHQLASTWAKAYAETTLEHARPEEPSWDEDFADVYHDLIHSPASETLLNLEHNYFVSISELIGERDVELKKLRERQGIEMEKVMQELGKSLTDQDVNSLAAQHFESQQDLENKWSNELKQSTAIQKQEYQEWVIKLHQDLKNPNNSSLSEEIKVQPSQFRESVEAIGRIYEEQRKLEESFTIHLGAQLKTMHNLRLLRADMLDFCKHKRNHRSGVKLHRLQTALSLYSTSLCGLVLLVDNRINSYSGIKRDFATVCQECTDFHFPRIEEQLEVVQQVVLYARTQRRSKLKESLDSGNQNGGNDDKTKNAERNYLNVLPGEFYITRHSNLSEIHVAFHLCVDDHVKSGNITARDPAIMGLRNILKVCCTHDITTISIPLLLVHDMSEEMTIPWCLRRAELVFKCVKGFMMEMASWDGGISRTVQFLVPQSISEEMFYQLSNMLPQIFRVSSTLTLTSKH
# B4: Fy-2 (Ppp1r21), untagged subunit of the reconstituted FERRY complex (natural protein, human, UniProt Q6ZMI0 1-780, looked up)
# chain: MASAELQGKYQKLAQEYSKLRAQNQVLKKGVVDEQANSAALKEQLKMKDQSLRKLQQEMDSLTFRNLQLAKRVELLQDELALSEPRGKKNKKSGESSSQLSQEQKSVFDEDLQKKIEENERLHIQFFEADEQHKHVEAELRSRLATLETEAAQHQAVVDGLTRKYMETIEKLQNDKAKLEVKSQTLEKEAKECRLRTEECQLQLKTLHEDLSGRLEESLSIINEKVPFNDTKYSQYNALNVPLHNRRHQLKMRDIAGQALAFVQDLVTALLNFHTYTEQRIQIFPVDSAIDTISPLNQKFSQYLHENASYVRPLEEGMLHLFESITEDTVTVLETTVKLKTFSEHLTSYICFLRKILPYQLKSLEEECESSLCTSALRARNLELSQDMKKMTAVFEKLQTYIALLALPSTEPDGLLRTNYSSVLTNVGAALHGFHDVMKDISKHYSQKAAIEHELPTATQKLITTNDCILSSVVALTNGAGKIASFFSNNLDYFIASLSYGPKAASGFISPLSAECMLQYKKKAAAYMKSLRKPLLESVPYEEALANRRILLSSTESREGLAQQVQQSLEKISKLEQEKEHWMLEAQLAKIKLEKENQRIADKLKNTGSAQLVGLAQENAAVSNTAGQDEATAKAVLEPIQSTSLIGTLTRTSDSEVPDVESREDLIKNHYMARIVELTSQLQLADSKSVHFYAECRALSKRLALAEKSKEALTEEMKLASQNISRLQDELTTTKRSYEDQLSMMSDHLCSMNETLSKQREEIDTLKMSSKGNSKKNKSR
# B5: atp5f1b (atp5b) 3'UTR-50A (ssRNA)
# RNA: GGGGGGGUCUUUGUCCUCUGUACUGUCUCUCUCCUUGCCCCUAACCCAAAAAGCUUCAUUUUUCUGUGUAGGCUGCACAAGAGCCUUGAUUGAAGAUAUAUUCUUUCUGAACAGUAUUUAAGGUUUCCAAUAAAAUGUACACCCCUCAGAAAAAAAAAAAAAAAAAAAAAAAAAAAAAAAAAAAAAAAAAAAAAAAAAAAAGCGGCCGC
# B6: mrpl41 5'UTR (ssRNA)
# RNA: GGGGCUCUUGCUGCGACGCAGCGGUCGGAAGCGGAGCAAGGUCGAGGCCGGGUUGGCGCCGGAGCCGGGGCCGCUUGGAGCUCGUGUGGGGUCUCCGGUCCAGGGCGCGGCGCGGCCGC
# Biological target: T1, His6-Fy-1 (Tbck), subunit of the …
# Test: SEC
row,Binder,stoichiometry N
1,B1,4
2,B2,2
3,B3,1
4,B4,2

# Biological target: Fy-1 (TBCK);Fy-2 (PPP1R21);Fy-3 (C12orf4);Fy-4 (CRYZL1);Fy-5 (GATD1) (Homo sapiens;Homo sapiens;Homo …, UniProt Q8TEA7;Q6ZMI0;Q9NQ89;O95825;Q8NB37 1-893;1-780;1-552;1-349;1-220, ||||)
# Test: EMSA
row,Binder,binding result
1,B5,no binding
2,B6,no binding
